From a protein production outcome set (Wang et al. 2014)

Assay: label from the status in PepcDB records

Sequence	protein production
MGHHHHHHSHMDNHNPMKDIEVTSSPDDSIGCLSFSPPTLPGNFLIAGSWANDVRCWEVQDSGQTIPKAQQMHTGPVLDVCWSDDGSKVFTASCDKTAKMWDLSSNQAIQIAQHDAPVKTIHWIKAPNYSCVMTGSWDKTLKFWDTRSSNPMMVLQLPERCYCADVIYPMAVVATAERGLIVYQLENQPSEFRRIESPLKHQHRCVAIFKDKQNKPTGFALGSIEGRVAIHYINPPNPAKDNFTFKCHRSNGTNTSAPQDIYAVNGIAFHPVHGTLATVGSDGRFSFWDKDARTKLKTSEQLDQPISACCFNHNGNIFAYASSYDWSKGHEFYNP	failed
MGHHHHHHSHMDSHDLQRFLSDFRDLMSWINGIRGLVSSDELAKDVTGAEALLERHQEHRTEIDARAGTFQAFEQFGQQLLAHGHYASPEIKQKLDILDQERADLEKAWVQRRMMLDQCLELQLFHRDCEQAENWMAAREAFLNTEDKGDSLDSVEALIKKHEDFDKAINVQEEKIAALQAFADQLIAAGHYAKGDISSRRNEVLDRWRRLKAQMIEKR	not failed
MGHHHHHHSHMGKGTFVYRTTITSPHEEVWAFFSSPTNLQTLTKIPKVVLDSTSETTQGSEIEMKLFVLGIPFQWKAYIEAYNPPFSFTDVAIKMPFPIVYWRHTHRFTTEGERTVMIDEIQYEIKMANKLVIFFLRRMFRARESALHRYFQS	not failed
MGHHHHHHSHMKEDQKNKIPEDILKQLLSVDPETVYASGYASWQEGDYSRAVIDFSWLVMAQPWSWRAHIALAGTWMMLKEYTTAINFYGHALMLDASHPEPVYQTGVCLKMMGEPGLAREAFQTAIKMSYADASWSEIRQNAQKMVDTLIA	failed
MGHHHHHHSHMKLVTRSCDPGEKLDSKIGVLIGKGLHEFDSLKDPEVNEFRRKMRKFSEEKILSLVGLSWMDWLKQTYPPEHEPSIPENLEDKLYGGKLIVAVHFENCQDVFSFQVSPNMNPIKVNELAIQKRLTIHGKEDEVSPYDYVLQVSGRVEYVFGDHPLIQFQYIRNCVMNRALPHFILVECCKIKK	failed
MGHHHHHHSHMKMEHQNKRSPLHAAAEAGHVDICHMLVQAGANIDTCSEDQRTPLMEAAENNHLEAVKYLIKAGALVDPKDAEGSTCLHLAAKKGHYEVVQYLLSNGQMDVNCQDDGGWTPMIWATEYKHVDLVKLLLSKGSDINIRDNEENICLHWAAFSGCVDIAEILLAAKCDLHAVNIHGDSPLHIAARENRYDCVVLFLSRDSDVTLKNKEGETPLQCASLNSQV	failed
MGHHHHHHSHMLVDNLYRVVSNQKDAAVIRVHLEVNASHEIFKGHFPEVPVLPGVCMVQCIKELIEESLLVKTQIDKGDMIKFLSMLNPVESNSIQAEISIKEKTETRIVFQATLKNEDRFLLKYSGSLVVLN	failed
MGHHHHHHSHMPRGPAGEAGASPPVRRVRVVKQEAGGLGISIKGGRENRMPILISKIFPGLAADQSRALRLGDAILSVNGTDLRQATHDQAVQALKRAGKEVLLEVKFIREVT	failed
MGHHHHHHSHMSSRGHSTLPRTLMAPRMISEGDIGGIAQITSSLFLGRGSVASNRHLLQARGITCIVNATIEIPNFNWPQFEYVKVPLADMPHAPIGLYFDTVADKIHSVSRKHGATLVHCAAGVSRSATLCIAYLMKFHNVCLLEAYNWVKARRPVIRPNVGFWRQLIDYERQLFGKSTVKMVQTPYGIVPDVYEKESRHLMPYWGI	failed
MGHHHHHHSHMSYARVRAVVMTRDDSSGGWLPLGGSGLSSVTVFKVPHQEENGCADFFIRGERLRDKMVVLECMLKKDLIYNKVTPTFHHWKIDDKKFGLTFQSPADARAFDRGIRRAIEDISQGCPESK	not failed
MGHHHHHHSHMTKIIPVASGKGGVGKTSFVANVGYKLSSLGKTVILVDLDLGGSNLHTCLGVKNKGVGIGSFINKKSKSFSDLVCKTSYDKLYLIPGDALYTGTANLPFSIKKKIIESIQKDLIADFIFLDLGSGTSYNTIDFYLASYSGVIVTIPETPSILNAYSFLKNALYRLLYLGFP	failed
MGHHHHHHSHMTKLPPIEQLLPHDKPMILVDRAMDIQQDTIHCQVDIAEHNPFFDSASQTVPAYVGIEFMAQSVAAWSGYHALMKEQAPPIGFLLGSRRYTSECDAFSRGQMLDVYAEKVMEDNGMAVFSARIELQGTVVATCQLNVYVPSEEKLQEMKIRSQQ	not failed
MGHHHHHHSHNSSSCPEIQGFLHVKELGKKSWKKLYVCLRRSGLYCSTKGTSKEPRHLQLLADLEDSNIFSLIAGRKQYNAPTDHGLCIKPNKVRNETKELRLLCAEDEQTRTCWMTAFRLLKYGMLLYQNYRIPQQRKALLSPFSTPVRSVSENSLVAMDFSGQTGRVIENPAEAQSAALEEGHAWRKRSTRMNILGSQSPLHPSTLSTVIHRTQ	failed
MGHHHHHHSHPAEYNISPETRRAQAERLAIRAQLKREYLLQYNDPNRRGLIENPALLRWAYARTINVYPNFRPTPKNSLMGALCGFGPLIFIYYIIKTERDRKEKLIQEGKLDRTFHLSY	failed
MGHHHHHHSHRPESFFQQSFQRLSRLGHGSYGEVFKVRSKEDGRLYAVKRSMSPFRGPKDRARKLAEVGSHEKVGQHPCCVRLEQAWEEGGILYLQTELCGPSLQQHCEAWGASLPEAQVWGYLRDTLLALAHLHSQGLVHLDVKPANIFLGPRGRCKLGDFGLLVELGTAGAGEVQEGDPRYMAPELLQGSYGTAADVFSLGLTILEVACNMELPHGGEGWQQLRQGYLPPEFTAGLSSELRSVLVMMLEPDPKLRATAEALLALPVLRQPRAWGVLWCMAAEALSRG	failed
MGHHKAMPYADVAAFIIELRKREAVAATALEFTILTAARSGETLGAKWHEIDWKDKIWTVPAERMKAAREHRVPLSSRTITILKKLAEFGSDENSFVFPGQKPGKPLSVMAMDMVLRRMEVDVTVHGFRSSFRDWCGEVSNFPRDVAEAALAHVVGDKTERAYRRGDALEKRRKLMAAWEKFCIAEIKKNPLEHHHHHH	failed
MGIENFTAKIVGLSIVSLLVVLMFLYKLIYIIPLIFIVLLVFQSEKKIFAFLSKNTKQIQPYSIEDGVFYNEKNASAVLIIDDIQMDYKDFTNSNLRSFISSFHKILDIAKDINIVLKRESLDKNVYIESLSQKIQALRIMIDSDPSNEKAKRKLELMETIISRIESGENPFRYEMYIIINSRDKNSALSTASMIRQGLEGLGIKTRLATLHEIQKLVRDFFHSKLNLNKIALPTQIPYLTPISVEKKPKSSIIIDGVLLGKDINNNGLVFWNITKSQNSHLLIVGPTGSGKTEFLIWLSTILNLIYGGTVILFDVKGDIKYRLSMYKVPFQLINPLFYRLGLLDEYDIPIRIKLLQIEKILLNSFRLSKFNSSILYNYLNRLIDISYLKYRIKWKDLEKYLSEIDDVQLKYYLSKLINILSSMEDSELPPLLHGVNENEINLIDLTLIKSEEIKRLIIYTLIQELYNKFSLEKIYDKPRVFLVLDEAWTILKNESEDYPIVADLIKRGRGYGISIIMATQNLEDLGDLANIYLDNIGVSVFMNNGDKKFWEEIRRFVNVDNDTLSNNLIFMNRGEALVRFLGDPRPVIIKLNTLAGSSF	failed
MGIFERYLSVWVGLSIILGVILGLWQPNIFQLITEFEIAHVNIVVAVFIWVMIYPMMVQIDFSSIQNVGKNPKGLVLTIIINWFVKPFTMAALGWLFFNYLFADLVDPESAQEYIAGMILLGVAPCTAMVFVWSQLTKGDPNYTLVQVSVNDVIMIFAFAPISAFLLGVSDIQVPWETLLISVLLYVLLPLIAGVVTRRMLNKGNDKVDAQKSAEASINADEETNTNTDSTNKSLDNLLATLKPWSVIGLLATVVLLFGFQANTIISEPQTIGLIAIPLMIQTYGIFIIAYLAAKWLKLPHNIAAPACLIGTSNFFELAVAVAISLFGLHSGAALATVVGVLVEVPVMLSLVYFINHTQNWFVEGG	failed
MGIKNDLEIRLQKLQQQGNFKNYLEQYPTDASTAAYFLIEIYNDGNIGGRSVIDAGTGNGILACGSYLLGAESVTAFDIDPDAIETAKRNCGGVNFMVADVSEISGKYDTWIMNPPFGSVVKHSDRAFIDKAFETSMWIYSIGNAKARDFLRREFSARGDVFREEKVYITVPRIYRHHSYDRARIEAVIFGVRNHSF	not failed
MGISPDAASKLYTVKFQPDPIDKKGWSVIDFNNCCTQDGGWYLNMGWGVESLIDNNPGTQWLCRWDVKEPLPYYFVFDMGKEYTLFRFGFANPVAPAAHVWAGTSKAGYVEASIDNENWVKLKDWTSPKIGEPNVNMDVPATQARYIRFVITDTYPTYDGLRVSLGEVYAWGLEHHHHHH	not failed
MGISTNHTTFDGLSFKTFLENLASLLHEKPLSTPPCNDRTLLKARDPPSVAFPHHELVKFQDCETTTVFEATSEHLDFKIFKLSSEQIKKLKERASETSNGNVRVTGFNVVTALVWRCKALSVAAEEGEETNLERESTILYAVDIRGRLNPELPPSYTGNAVLTAYAKEKCKALLEEPFGRIVEMVGEGSKRITDEYARSAIDWGELYKGFPHGEVLVSSWWKLGFAEVEYPWGKPKYSCPVVYHRKDIVLLFPDIDGDSKGVYVLAALPSKEMSKFQHWFEDTLC	failed
MGKEERAKWVNDEYAKAYEKMKSYGEQVKKADKPRVLYLKRSDLTLQGNDNFIKESMELAGADNIAAEAKSITMEEILKLDPEIILLSDFDKFLPQDLYENRIEGQDWSSVSAVVNKRVYKTPVGIYRWDAPGVETPLMMFWLGKMLQPEILEHHHHHH	failed
MGKEIEIERKTLVSKETFKRLISQLHIGEGDFKLQRNHYFETDDFQLKKQSSALRIREKEAIFTFTLKQPHPAGLLETNQTLSKQEAKLALESAHFPSGEVMDALRDLSIPISQLKHIGTLSTSRAEISYEQGILCLDHSSYLGIEDYEIEFEGTSEEHATVTFQEILKTFSISQVPTENKIQRFFSKKEKN	not failed
MGKGKSAIESQIRMLKLAKEIVEEVASSFPNLEEVYIFGSRARGDYLDTSDIDILFVFKGIKEMNVFDRMYMVSRFIRGNVDYIVLDEGEKDRVKDKVLFWKREKGFVLL	not failed
MGKNLKGKELGKGLYQRKDGRYEARIFVRGTGKTFSIYGTNLQHLKKERNAYLANVSPGIAGYDPRISVSKWYEKWMLIYVVHSVKATTLSNYVNGFERVREYIGYMRLIEVRPTHILDMIKGLEEEGYARTTVIQSLSVVRQLFKKAYGGKMIPIDPVADIKLPKEEPGEIPDEKIMQEQEDEKCLSIYDTHRFLESCKNTRYYELFFILLHTGLRIGEALALEWCDLDFKHEKLRVYKTLNRVTKYYDLKGNELPERYSTIQITTPKKSASNRKVPLTDAVIAAFMSWKEKQDRDKEKLGKNWGKPNILLKKYPGLIFTTSSGRSYLPSSAQTECRRIVGIVNKHEIALAEKENRDPNLMDVHPHIFRHTFVTRCIQSGMDAATVKKIAGHSDEKMTNYYTHIEEEHIDDEYELYIQKYGTET	failed
MGLASMESWIDLLEWPAMLVTVVAAWCIGSHRPGRRMVGFCCFIASNILWSVWGWHAQAWALIVLQLVLCLMNLRGWRKNKRASRKAPSEKVQGGADATPYHLLTSTSRGQPENPS	failed
